Experimental findings from patent CN115232208A are described below.

The test concerns the target 人可溶性BLyS (human soluble BLyS) (human) (UniProt Q9Y275). Kind of test: cell-based or functional assay.

As to Benlysta (antibody), the IC50 of inhibition of the NF-κB signal downstream of human BLyS binding TACI (luciferase reporter gene assay) worked out at 0.0517 µg/mL.
